B1: NdCld (chlorite dismutase from "Candidatus Nitrospira defluvii") (Nitrospira defluvii) (protein)
chain: ADREKLLTESGVYGTFATFQMDHDWWDLPGESRVISVAEVKGLVEQWSGKILVESYLLRGLSDHADLMFRVHARTLSDTQQFLSAFMGTRLGRHLTSGGLLHGVSKKPTYVAGFPESMKTELQVNGESGSRPYAIVIPIKKDAEWWALDQEARTALMQEHTQAALPYLKTVKRKLYHSTGLDDVDFITYFETERLEDFHNLVRALQQVKEFRHNRRFGHPTLLGTMSPLDEILEKFAQ

Tests used:
[1] = tested on: Arg183; assay: kinetics; details: ferric heme enzyme, chlorite turnover (inferred from context); cited from earlier work
[2] = substrate: [O-][Cl+]O; assay: Clark-type O2 electrode, initial rates, Michaelis-Menten; assay type: biochemical, Nitrospira defluvii; details: pH 7.0, 50 mM phosphate, 30 °C, 50 nM enzyme, NaClO2 10-1000 μM

Molecule	pKa [1]	Km [2]	kcat [2]
Chlorite dismutase (DaCld) (Dechloromonas aromatica)	∼pH 6.5	–	–
B1	–	138 ± 20 µM	83 ± 4 s^–1
